The test system of one data set is SKI-1. The following applies: Seidah et al., 1999, preliminary data; cited from earlier work.
The subject of the next data set is furin. The following applies: cited from earlier work.
In the next data set the test system is SREBP-2. In words: Immunoblot of cleavage of HSV-tagged SREBP-2 in transfected SRD-12B cells. The class given is cell-based, hamster. Particulars: SRD-12B cells, HSV-tagged SREBP-2. On the procedure:
On day 0, SRD-12B cells were set up at a density of 6×10^5 cells/60-mm dish in medium B. On day 1, cells were transfected with 4 μg of the indicated plasmid DNA plus 12 μl of LipofectAMINE™ reagent (Life Technologies) according to the manufacturer's instructions with modifications as follows. LipofectAMINE™/DNA complexes were formed in 1 ml of serum-free medium for 15 min at room temperature, and 0.5 ml were added to 1 ml of serum-free medium per dish. […] After incubation at 37 ° C. for 20 h, the cells received N-acetyl-leucinal-leucinal norleucinal (ALLN) at a final concentration of 25 μg/ml. […] After boiling for 5 min, the proteins were subjected to SDS-PAGE and transferred to Hybond-C Extra nitrocellulose filters (Amersham). The filters were incubated with the antibodies described in the figure legends. […] Gels were calibrated with prestained molecular weight markers (New England Biolabs, Beverly, Mass.). Filters were exposed to X-Omat Blue XB-1 film (Kodak, Rochester, N.Y.) with intensifying screens at room temperature for the indicated time.
Cell membranes and nuclear extracts were subjected to electrophoresis and blotted with an antibody against the HSV epitope-tag.
In a more direct test for S1P catalytic activity, the mutant plasmids were transfected into the SRD-12B cells together with pTK-HSV-BP2. Membranes and nuclear extracts were subjected to SDS-PAGE and blotted with an antibody against the HSV-tagged SREBP-2 (FIG. 9B).
The inventors cotransfected cDNAs encoding wild-type S1P or one of the mutants. Cell membrane pellets and nuclear extracts were subjected to SDS-PAGE. and the NH2 -terminus of SREBP-2 was visualized by immunoblotting with anti-HSV (FIG. 16A).
Background: A western blot detects proteins with antibodies after separation by electrophoresis.

Data set [1] deals with PLAP-BP2(513-1141) in SRD-12B cells. As to the kind of experiment: Secreted alkaline phosphatase assay in SRD-12B cells transfected with wild-type or mutant S1P cDNAs. In kind it is cell-based, hamster. Particulars: Myc-tagged S1P cDNA.

For the molecule “27-amino acid synthetic peptide: 27-amino acid synthetic peptide corresponding to the luminal loop sequence of human SREBP-2 (GGAHDSDQHPHSGSGRSVLSFESGSGG)”, the “cleavage by SKI-1 culture medium” value with SKI-1 is reported as “able to cleave”.

Regarding “furin: subtilisin-like protease, literature comparator”, the “Kcat (furin in a similar assay)” value in the data set with furin (Molloy et al., 1992) is listed as 1.6 mol/min per mol of enzyme. Besides, in the data set with furin (furin and the prohormone convertases, Nakayama, 1997), the pH optimum is 6-7. As for `O=C(O)CN(CCN(CC(=O)O)CC(=O)O)CC(=O)O` [EDTA], the inhibition of furin entry with furin (Nakayama, 1997, Molloy et al., 1992) is on record as “totally inhibited”.

B1: S1P-B: amino acids 138-1052 of SEQ ID NO:1 (protein)
chain: FAESDPIVPCNETRWSQKWQSSRPLRRASLSLGSGFWHATGRHSSRRLLRAIPRQVAQTLQADVLWQMGYTGANVRVAVFDTGLSEKHPHFKNVKERTNWTNERTLDDGLGHGTFVAGVIASMRECQGFAPDAELHIFRVFTNNQVSYTSWFLDAFNYAILKKIDVLNLSIGGPDFMDHPFVDKVWELTANNVIMVSAIGNDGPLYGTLNNPADQMDVIGVGGIDFEDNIARFSSRGMTTWELPGGYGRVKPDIVTYGAGVRGSGVKGGCRALSGTSVASPVVAGAVTLLVSTVQKRELVNPASVKQALIASARRLPGVNMFEQGHGKLDLLRAYQILSSYKPQASLSPSYIDLTECPYMWPYCSQPIYYGGMPTIVNVTILNGMGVTGRIVDKPEWRPYLPQNGDNIEVAFSYSSVLWPWSGYLAISISVTKKAASWEGIAQGHIMITVASPAETEAKNGAEHTSTVKLPIKVKIIPTPPRSKRVLWDQYHNLRYPPGYFPRDNLRMKNDPLDWNGDHVHTNFRDMYQHLRSMGYFVEVLGAPFTCFDATQYGTLLMVDSEEEYFPEEIAKLRRDVDNGLSLVIFSDWYNTSVMRKVKFYDENTRQWWMPDTGGANIPALNELLSVWNMGFSDGLYEGEFALANHDMYYASGCSIAKFPEDGVVITQTFKDQGLEVLKQETAVVENVPILGLYQIPAEGGGRIVLYGDSNCLDDSHRQKDCFWLLDALLQYTSYGVNPPSLSHSGNRQRPPSGAGLAPPERMEGNHLHRYSKVLEAHLGDPKPRPLPACPHLSWAKPQPLNETAPSNLWKHQKLLSIDLDKVVLPNFRSNRPQVRPLSPGESGAWDIPGGIMPGRYNQEVGQTIPVFAFLGAMVALAFFVVQISKAKSRPKRRRPRAKRPQLTQQTHPPRTPSV
Consider B1, for which, in the data set on SREBP-2, the “cleavage of SREBP-2 by S1P or S1P mutant” value is reported as “active”.

B2: wild-type S1P: hamster Site-1 protease expressed from cDNA (protein, UniProt Q9Z2A8 187-1052, looked up)
Membrane-bound transcription …: RAIPRQVAQTLQADVLWQMGYTGANVRVAVFDTGLSEKHPHFKNVKERTNWTNERTLDDGLGHGTFVAGVIASMRECQGFAPDAELHIFRVFTNNQVSYTSWFLDAFNYAILKKIDVLNLSIGGPDFMDHPFVDKVWELTANNVIMVSAIGNDGPLYGTLNNPADQMDVIGVGGIDFEDNIARFSSRGMTTWELPGGYGRVKPDIVTYGAGVRGSGVKGGCRALSGTSVASPVVAGAVTLLVSTVQKRELVNPASVKQALIASARRLPGVNMFEQGHGKLDLLRAYQILSSYKPQASLSPSYIDLTECPYMWPYCSQPIYYGGMPTIVNVTILNGMGVTGRIVDKPEWRPYLPQNGDNIEVAFSYSSVLWPWSGYLAISISVTKKAASWEGIAQGHIMITVASPAETEAKNGAEHTSTVKLPIKVKIIPTPPRSKRVLWDQYHNLRYPPGYFPRDNLRMKNDPLDWNGDHVHTNFRDMYQHLRSMGYFVEVLGAPFTCFDATQYGTLLMVDSEEEYFPEEIAKLRRDVDNGLSLVIFSDWYNTSVMRKVKFYDENTRQWWMPDTGGANIPALNELLSVWNMGFSDGLYEGEFALANHDMYYASGCSIAKFPEDGVVITQTFKDQGLEVLKQETAVVENVPILGLYQIPAEGGGRIVLYGDSNCLDDSHRQKDCFWLLDALLQYTSYGVTPPSLSHSGNRQRPPSGAGLAPPERMEGNHLHRYSKVLEAHLGDPKPRPLPACPHLSWAKPQPLNETAPSNLWKHQKLLSIDLDKVVLPNFRSNRPQVRPLSPGESGAWDIPGGIMPGRYNQEVGQTIPVFAFLGAMVALAFFVVQISKAKSRPKRRRPRAKRPQLTQQTHPPRTPSV
With B2, in data set [1], the “PLAP activity in the culture medium” value was “increased”. Besides, the results for the “cleavage of SREBP-2 by S1P or S1P mutant” value in the data set on SREBP-2 and with SREBP-2 (listed as Wild-type S1P) were “maximal cleavage” and “restored cleavage”, respectively.

B3: S1P-C: amino acids 187-1052 of SEQ ID NO:1 (protein)
chain: RAIPRQVAQTLQADVLWQMGYTGANVRVAVFDTGLSEKHPHFKNVKERTNWTNERTLDDGLGHGTFVAGVIASMRECQGFAPDAELHIFRVFTNNQVSYTSWFLDAFNYAILKKIDVLNLSIGGPDFMDHPFVDKVWELTANNVIMVSAIGNDGPLYGTLNNPADQMDVIGVGGIDFEDNIARFSSRGMTTWELPGGYGRVKPDIVTYGAGVRGSGVKGGCRALSGTSVASPVVAGAVTLLVSTVQKRELVNPASVKQALIASARRLPGVNMFEQGHGKLDLLRAYQILSSYKPQASLSPSYIDLTECPYMWPYCSQPIYYGGMPTIVNVTILNGMGVTGRIVDKPEWRPYLPQNGDNIEVAFSYSSVLWPWSGYLAISISVTKKAASWEGIAQGHIMITVASPAETEAKNGAEHTSTVKLPIKVKIIPTPPRSKRVLWDQYHNLRYPPGYFPRDNLRMKNDPLDWNGDHVHTNFRDMYQHLRSMGYFVEVLGAPFTCFDATQYGTLLMVDSEEEYFPEEIAKLRRDVDNGLSLVIFSDWYNTSVMRKVKFYDENTRQWWMPDTGGANIPALNELLSVWNMGFSDGLYEGEFALANHDMYYASGCSIAKFPEDGVVITQTFKDQGLEVLKQETAVVENVPILGLYQIPAEGGGRIVLYGDSNCLDDSHRQKDCFWLLDALLQYTSYGVNPPSLSHSGNRQRPPSGAGLAPPERMEGNHLHRYSKVLEAHLGDPKPRPLPACPHLSWAKPQPLNETAPSNLWKHQKLLSIDLDKVVLPNFRSNRPQVRPLSPGESGAWDIPGGIMPGRYNQEVGQTIPVFAFLGAMVALAFFVVQISKAKSRPKRRRPRAKRPQLTQQTHPPRTPSV
On to B3, for which the “cleavage of SREBP-2 by S1P or S1P mutant” value with SREBP-2 was “active”.

B4: 5411A: control S1P mutant, serine near catalytic triad mutated to alanine (protein, UniProt Q9Z2A8 187-1052, looked up, variant S411A)
Membrane-bound transcription …: RAIPRQVAQTLQADVLWQMGYTGANVRVAVFDTGLSEKHPHFKNVKERTNWTNERTLDDGLGHGTFVAGVIASMRECQGFAPDAELHIFRVFTNNQVSYTSWFLDAFNYAILKKIDVLNLSIGGPDFMDHPFVDKVWELTANNVIMVSAIGNDGPLYGTLNNPADQMDVIGVGGIDFEDNIARFSSRGMTTWELPGGYGRVKPDIVTYGAGVRGSGVKGGCRALAGTSVASPVVAGAVTLLVSTVQKRELVNPASVKQALIASARRLPGVNMFEQGHGKLDLLRAYQILSSYKPQASLSPSYIDLTECPYMWPYCSQPIYYGGMPTIVNVTILNGMGVTGRIVDKPEWRPYLPQNGDNIEVAFSYSSVLWPWSGYLAISISVTKKAASWEGIAQGHIMITVASPAETEAKNGAEHTSTVKLPIKVKIIPTPPRSKRVLWDQYHNLRYPPGYFPRDNLRMKNDPLDWNGDHVHTNFRDMYQHLRSMGYFVEVLGAPFTCFDATQYGTLLMVDSEEEYFPEEIAKLRRDVDNGLSLVIFSDWYNTSVMRKVKFYDENTRQWWMPDTGGANIPALNELLSVWNMGFSDGLYEGEFALANHDMYYASGCSIAKFPEDGVVITQTFKDQGLEVLKQETAVVENVPILGLYQIPAEGGGRIVLYGDSNCLDDSHRQKDCFWLLDALLQYTSYGVTPPSLSHSGNRQRPPSGAGLAPPERMEGNHLHRYSKVLEAHLGDPKPRPLPACPHLSWAKPQPLNETAPSNLWKHQKLLSIDLDKVVLPNFRSNRPQVRPLSPGESGAWDIPGGIMPGRYNQEVGQTIPVFAFLGAMVALAFFVVQISKAKSRPKRRRPRAKRPQLTQQTHPPRTPSV
As for B4, the “PLAP activity relative to wild-type levels” value in data set [1] is reported as 50-70 % of wild-type levels.

(Values after US6322962A, “Sterol-regulated Site-1 protease and assays of modulators thereof” (Board of Regents, The University of Texas System, priority 1999, dated 2001).)
